B1: PyrKII (P. falciparum pyruvate kinase II; His-PyrKII) (Plasmodium falciparum 3D7) (protein)
chain: GSGNGSGDLLFLNNININKNVERKKNILAHSEIGTVRNIDDINLLNHNKKNEISFTKCKQIATIGPASENFEQLEKLYLNGIDVFRLNFSHGLKSIKKYIINSIRILEKKYDTTIGILGDIQGPKIRIGEFEKNQINENDNNTFVELKEGDLFSFDLMNSLGNQNRVQLNYPELIKNAKAGQIILLDDGNLKMKILENNYDTSNIQNSYIKVQVLTGGKLYSKKGFCIPNMIMPIDVLSEKDIKDILFCINEEVDFLGYSFVQTEYDLIFLRNIINDYYESDFYNNIKRKDRINFDQNNLQMKTFDDENDFYIKEVNDYYNNYYLKNVQKYKQIYDVYKNQDLYINDNIQNHYNKNIVTNIGDDKNIIDEQHIHNNNNNNIDNIMKNYSNLYNINKDHNKIAIISKIEKPSAIKNIENIIKLSDGIMIARGDLGIETNLSNLPILQKKLINLCRIKYNKPVIVATQMMESMRFLPSPTRAEVTDVATALYDGSDCVMLSAETATGQYPILTVSTQNKIIKDVENDYYYYEYTQRKNDKLKMLDHKNNCCHENKDIQQINKYNHEYIQNNKYEQDIQNNISYFDKLIFSIRDISNNINLKSIILFSNEFNKIQKLSNLRTKAPIIVITENKYLARKLQLTWGIYPHLSKKQNLFNHDLFSLINYGCDVSKKEGFVNSPDEYSLVTFSKNINSANLLYLCQPCLTN
notes: residues 42-745 (predicted mature protein, apicoplast trafficking peptide removed); synthetic codon-harmonized gene; MBP-TEV-His6 fusion from E. coli BL21 Star (DE3), MBP cut by TEV, N-terminal His6 kept; 83,014 Da

Key:
[1] = target: T1, PyrKII (P. falciparum pyruvate kinase II; His-PyrKII) (Plasmodium falciparum, UniProt Q8IJ37); test: LDH-coupled spectrophotometric assay, NADH oxidation at […] nm; assay type: biochemical; settings: 3 mM ADP, PEP 0-20 mM, 10 mM MgCl2, 50 mM KCl, 26.5 mM Tris-HCl pH 7.5
T1 construct: gene PF3D7_1037100; residues 42-745 (predicted mature protein, apicoplast trafficking peptide removed); synthetic codon-harmonized gene; MBP-TEV-His6 fusion from E. coli BL21 Star (DE3), MBP cut by TEV, N-terminal His6 kept; 83,014 Da
T1 sequence (Q8IJ37 42-745): B1 chain

[2] = substrate: Nc1ccn([C@@H]2O[C@H](COP(=O)(O)OP(=O)(O)O)[C@@H](O)[C@H]2O)c(=O)n1; test: purified protein; assay type: biochemical, Plasmodium falciparum; settings: 5 mM PEP, 10 mM MgCl2, 50 mM KCl, 26.5 mM Tris-HCl pH 7.5
[3] = substrate: Nc1ccn([C@H]2C[C@H](O)[C@@H](COP(=O)(O)OP(=O)(O)O)O2)c(=O)n1; test: purified protein; assay type: biochemical, Plasmodium falciparum; settings: 5 mM PEP, 10 mM MgCl2, 50 mM KCl, 26.5 mM Tris-HCl pH 7.5
[4] = substrate: Nc1nc2c(ncn2[C@@H]2O[C@H](COP(=O)(O)OP(=O)(O)O)[C@@H](O)[C@H]2O)c(=O)[nH]1; test: purified protein; assay type: biochemical, Plasmodium falciparum; settings: 5 mM PEP, 10 mM MgCl2, 50 mM KCl, 26.5 mM Tris-HCl pH 7.5
[5] = substrate: Nc1nc2c(ncn2[C@H]2C[C@H](O)[C@@H](CO[P@](=O)(O)OP(=O)(O)O)O2)c(=O)[nH]1; test: purified protein; assay type: biochemical, Plasmodium falciparum; settings: 5 mM PEP, 10 mM MgCl2, 50 mM KCl, 26.5 mM Tris-HCl pH 7.5
[6] = substrate: Nc1ncnc2c1ncn2[C@@H]1O[C@H](COP(=O)(O)OP(=O)(O)O)[C@@H](O)[C@H]1O; test: purified protein; assay type: biochemical, Plasmodium falciparum; settings: 5 mM PEP, 10 mM MgCl2, 50 mM KCl, 26.5 mM Tris-HCl pH 7.5
[7] = substrate: Nc1ncnc2c1ncn2[C@H]1C[C@H](O)[C@@H](COP(=O)(O)OP(=O)(O)O)O1; test: purified protein; assay type: biochemical, Plasmodium falciparum; settings: 5 mM PEP, 10 mM MgCl2, 50 mM KCl, 26.5 mM Tris-HCl pH 7.5
[8] = substrate: O=c1ccn([C@@H]2O[C@H](COP(=O)(O)OP(=O)(O)O)[C@@H](O)[C@H]2O)c(=O)[nH]1; test: purified protein; assay type: biochemical, Plasmodium falciparum; settings: 5 mM PEP, 10 mM MgCl2, 50 mM KCl, 26.5 mM Tris-HCl pH 7.5

Molecule | Km [1] | kcat [2] [s⁻¹] | kcat/Km [2] [M⁻¹ s⁻¹] | kcat [3] [s⁻¹] | kcat/Km [3] [M⁻¹ s⁻¹] | kcat [4] [s⁻¹] | kcat/Km [4] [M⁻¹ s⁻¹] | kcat [5] [s⁻¹] | kcat/Km [5] [M⁻¹ s⁻¹] | kcat [6] [s⁻¹] | kcat/Km [6] [M⁻¹ s⁻¹] | kcat [7] [s⁻¹] | kcat/Km [7] [M⁻¹ s⁻¹] | kcat [8] [s⁻¹] | kcat/Km [8] [M⁻¹ s⁻¹]
C=C(OP(=O)(O)O)C(=O)O [PEP] | 0.64+ / - 0.05 mM | – | – | – | – | – | – | – | – | – | – | – | – | – | –
B1 | – | 7.3 ± 1.15 | 7200 | 1.3 ± 0.05 | 2480 | 6.62 ± 0.75 | 98200 | 1.5 ± 0.0833 | 5300 | 13.2 ± 3.1 | 53300 | 6.68 ± 0.517 | 17800 | 4.2 ± 0.667 | 5100
